These results are taken from paper PMC5117957 (Journal of immunology (Baltimore, Md. : 1950), 2016).

The test has as its target gp120 (derived from isolate YU2) (HIV-1 isolate YU2, UniProt P35961). Kind of test: ELISA.

B1: CD4bs MAb F105 (antibody, V domains shown)
VH: QVQLQESGPGLVKPSETLSLTCTVSGGSISSHYWSWIRQSPGKGLQWIGYIYYSGSTNYSPSLKSRVTISVETAKNQFSLKLTSMTAADTAVYYCARGPVPAVFYGDYRLDPWGQGTLVTVSS
VL: EIVLTQSPGTLSLSAGERATLSCRASQSVSSRYLAWYQQKPGQAPRLLIYGASSRATGIPDRFSGSGSGTDFTLTISRVEPEDFAVYYCQQYDNSVCTFGQGTKLEIK
B1: the binding result is recorded as “binds”.
